Biological target: T1, human GITR, membrane bound (human, UniProt Q9Y5U5 26-241)
T1 sequence: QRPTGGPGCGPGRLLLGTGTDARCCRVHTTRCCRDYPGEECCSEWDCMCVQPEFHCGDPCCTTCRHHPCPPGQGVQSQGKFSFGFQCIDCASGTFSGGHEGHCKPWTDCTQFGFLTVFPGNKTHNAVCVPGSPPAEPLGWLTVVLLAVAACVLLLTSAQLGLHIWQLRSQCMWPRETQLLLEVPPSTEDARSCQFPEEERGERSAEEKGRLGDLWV
Test: cell-based or functional assay

NFKB signaling (phospho-p65), CD4+ T cells, Emax (%): 69%
NFKB signaling (phospho-p65), CD8+ T cells, Emax (%): 85%
B1: 28F3 (antibody, human IgG2, kappa)
heavy: QVQLVESGGGVVQPGRSLRLSCAASGFTFSSYGMHWVRQAPGKGLEWVAVIWYEGSNKYYADSVKGRFTISRDNSKNTLYLQMNSLRAEDTAVYYCARGGSMVRGDYYYGMDVWGQGTTVTVSSASTKGPSVFPLAPCSRSTSESTAALGCLVKDYFPEPVTVSWNSGALTSGVHTFPAVLQSSGLYSLSSVVTVPSSNFGTQTYTCNVDHKPSNTKVDKTVERKCCVECPPCPAPPVAGPSVFLFPPKPKDTLMISRTPEVTCVVVDVSHEDPEVQFNWYVDGVEVHNAKTKPREEQFNSTFRVVSVLTVVHQDWLNGKEYKCKVSNKGLPAPIEKTISKTKGQPREPQVYTLPPSREEMTKNQVSLTCLVKGFYPSDIAVEWESNGQPENNYKTTPPMLDSDGSFFLYSKLTVDKSRWQQGNVFSCSVMHEALHNHYTQKSLSLSPGK
light: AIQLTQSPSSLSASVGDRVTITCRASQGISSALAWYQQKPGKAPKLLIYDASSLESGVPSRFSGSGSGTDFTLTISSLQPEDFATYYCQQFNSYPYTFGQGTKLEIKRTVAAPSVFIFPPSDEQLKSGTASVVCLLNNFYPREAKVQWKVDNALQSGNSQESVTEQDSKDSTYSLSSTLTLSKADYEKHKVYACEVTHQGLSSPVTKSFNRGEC

— patent US20180339042A1 (published 2018)
